Results on one molecule are retold here after patent US20260166131A1, “METHOD FOR PROMOTING PATHOLOGICAL TDP-43 PROTEIN DEGRADATION, AND DRUG” (TALENGEN INTERNATIONAL LIMITED, priority 2022, published 2026).

Data set [1] can be described thus: Spinal cord tissue plasminogen level in MPTP Parkinson's model mice (ELISA). The data set is classed as in vivo, mouse. As to conditions: 50 mg/kg tail vein. On the technique in general: In an ELISA, binding on a coated surface is turned into a signal by an enzyme label.
Data set [2] has as its target TDP-43 (Mus musculus, UniProt Q921F2). Kind of data set: TDP-43 in brain tissue of okadaic acid-induced dementia model (FAD) mice (Western blot). In kind it is in vivo. More on the design: from tissue; host or cells: mouse spinal cord, gluteal muscle, brain, kidney cell nuclei. The settings on record: okadaic acid in basolateral amygdala, 50 mg/kg tail vein single dose, 6 hours, vs vehicle group. The method, then:
Ten B6SJL-Tg (APPSwFlLon, PSEN1*M146L*L286V) 6799Vas/Mmjax (hereinafter referred to as FAD) female mice aged 30-32 weeks (purchased from Jackson lab, stock number: 034840) were taken to weigh before modeling as the model group, and five C57 female mice aged 6-7 weeks were selected as the blank group. After grouping, mice in the blank group and model group were anesthetized by intraperitoneal injection of tribromoethanol at a dose of 20 mL/kg. Model mice were located in the basolateral amygdala according to the mouse stereotaxic atlas (according to the coordinates of the bregma: AP-1.94 mm, ML+3.15 mm, DV-4.5 mm), and each mouse was slowly microinjected bilaterally. Mice in the blank group were only drilled at the coordinate location point without injection. The mice in the model group were injected with 50 ng/μL okadaic acid (manufacturer: Shanghai Yuanye Biotechnology Co., Ltd., catalog number S30686-25 ug:) solution, the injection rate was 0.5 μL/min, the injection volume was 2 μL, and after the injection, the syringe stayed for 6 minutes and then slowly withdrew. […] The mice were killed 6 hours after the single administration and the brain tissues were obtained. After homogenization, TDP-43 was detected by western blot.
In general terms: A western blot detects proteins with antibodies after separation by electrophoresis.

The test system of data set [3] is TDP-43. Kind of data set: TDP-43 in spinal cord tissue of SOD1-G93A mice after plasminogen (Western blot). In kind it is in vivo. As to conditions: 50 mg/kg tail vein, 24 hours after administration, vs vehicle group, P<0.05. The method, then:
Six SOD1-G93A mice aged 10-15 weeks were randomly divided into two groups: 3 mice in vehicle control group, and 3 mice in plasminogen group. The vehicle control group mice were injected with the vehicle at 5 ml/kg by tail vein, and the plasminogen group mice were injected with plasminogen (10 mg/ml) at 50 mg/kg body weight by tail vein. The mice were killed 24 hours after administration, and the spinal cords were obtained. After homogenization, TDP-43 was detected by western blot.

Data set [4] concerns the target T1, TDP-43 (Homo sapiens, UniProt Q13148).
T1 construct: purchased Nanjing GenScript Biotechnology Co., Ltd. C134WHE160-2/P5HF001
Kind of data set: Cleavage of TDP-43 protein in normal mouse brain homogenate (Western blot). In kind it is biochemical. The settings on record: normal mouse brain homogenate + recombinant TDP-43, 37° C. 3 h, vs vehicle control group. As for the experimental part:
Four C57BL/6J male mice aged 11-12 weeks and weighing 18-25 g were sacrificed, and the whole brain was taken out to weigh. 1×PBS was added at 150 mg tissue/mL PBS (Thermo Fisher, pH 7.4; 10010-031) to homogenize at 4° C. (1 min, 3-4 times). After homogenization, centrifugation was performed at 4° C. (12000 rpm, 20 min), and the supernatant, i.e., the brain homogenate, was placed in a new EP tube.
Eppendorf (EP) tubes were set as: (1) blank group, (2) blank control group, (3) vehicle control group, and (4) plasminogen group, with 5 parallels in each group. The blank group was added with 21.5 μL of normal saline, 4.6 μL of vehicle solution (10 mM sodium citrate, 2% arginine hydrochloride, 3% mannitol, pH 7.4), and 23.9 μL of mouse brain homogenate; the blank control group was added with 21.5 μL of normal saline, 2.3 μL of plasminogen solution (2 mg/mL), and 23.9 μL of mouse brain homogenate; the vehicle control group was added with 20.5 μL of TDP-43 (Nanjing GenScript Biotechnology Co., Ltd., custom-expressed human TDP-43, C134WHE160-2/P5HF001, 1.05 mg/mL), 4.6 μL of vehicle solution, and 23.9 μL of mouse brain homogenate; the plasminogen group was added with 20.5 μL of TDP-43 (1.05 mg/mL), 2.3 μL of plasminogen solution (2 mg/mL), and 23.9 μL of mouse brain homogenate. After adding each group of samples, they are incubated at 37° C. for 3 h, then adding 50 μL of 0.1% trifluoroacetic acid solution to terminate the reaction.
A 12% gel was prepared according to the SDS-PAGE gel preparation instructions. Each group of samples was mixed with 4× loading buffer (TaKaRa, e2139) at a volume ratio of 3:1, heating at 100° C. for 5 min, cooling and centrifuging for 2 min, and then 20 μL was taken for sample loading. […] After washing 4 times with TBST, the PVDF membrane was placed on a clean imaging plate, Immobilon Western HRP Substrate (MILLIPORE, WBKLS0100) was added for color development, and photos were taken under a biomolecular imager, then performing quantitative analysis by using Image J.

A short description of data set [5]: Plasmin activity in brain tissue of MPTP/LPS Parkinson's model mice (enzyme substrate kinetic method). The data set is classed as in vivo, mouse. As to conditions: MPTP + LPS Parkinson's model mice, 50 mg/kg tail vein single dose, 2 hours, vs vehicle group, P<0.05. The method, then: Fifteen female mice were taken to weigh before modeling. […] All mice in the model group were intraperitoneally injected with 5 mg/mL MPTP solution at 35 mg/kg/mouse, and the mice in the blank control group were intraperitoneally injected with 7 mL/kg normal saline. The modeling time was set at 9 am every day, and the injections were continued for 5 days. 24 hours after the last MPTP injection, all mice were weighed and injected intraperitoneally with 5 mg/kg LPS solution. […] The plasmin activity in brain tissue homogenate was detected by enzyme substrate kinetic method. […] 85 μL/well of seven different concentrations of standard solution, blank, and sample were added to the ELISA plate in sequence, and then 15 μL of 20 mM S-2251 solution (Chromogenix, 82033239) was added to each well to incubate at 37° C. Starting from 0 min of reaction, the A405 absorbance value was read in a multifunctional microplate reader every 5 min until the reaction time was 90 min. All reactions were fitted with a straight line by time and absorbance, and the slope of the straight line was the reaction rate of the standard/sample (ΔA405/min). Finally, the potency value of the standard substance and ΔA405/min were used to create a standard curve to calculate the potency of the measured samples.

T1 sequence (Q13148 whole entry): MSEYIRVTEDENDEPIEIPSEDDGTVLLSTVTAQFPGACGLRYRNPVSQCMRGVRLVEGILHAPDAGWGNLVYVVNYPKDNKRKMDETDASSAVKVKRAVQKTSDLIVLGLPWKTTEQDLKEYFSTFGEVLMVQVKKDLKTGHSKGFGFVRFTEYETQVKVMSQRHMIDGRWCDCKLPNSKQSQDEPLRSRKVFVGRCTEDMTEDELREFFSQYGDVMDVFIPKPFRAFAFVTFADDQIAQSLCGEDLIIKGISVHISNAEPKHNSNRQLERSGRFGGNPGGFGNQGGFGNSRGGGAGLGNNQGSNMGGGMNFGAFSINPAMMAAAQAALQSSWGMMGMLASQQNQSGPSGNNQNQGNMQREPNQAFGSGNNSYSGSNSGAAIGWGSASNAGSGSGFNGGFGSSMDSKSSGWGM
TDP-43 (Mus musculus, UniProt Q921F2), sequence (Q921F2 whole entry): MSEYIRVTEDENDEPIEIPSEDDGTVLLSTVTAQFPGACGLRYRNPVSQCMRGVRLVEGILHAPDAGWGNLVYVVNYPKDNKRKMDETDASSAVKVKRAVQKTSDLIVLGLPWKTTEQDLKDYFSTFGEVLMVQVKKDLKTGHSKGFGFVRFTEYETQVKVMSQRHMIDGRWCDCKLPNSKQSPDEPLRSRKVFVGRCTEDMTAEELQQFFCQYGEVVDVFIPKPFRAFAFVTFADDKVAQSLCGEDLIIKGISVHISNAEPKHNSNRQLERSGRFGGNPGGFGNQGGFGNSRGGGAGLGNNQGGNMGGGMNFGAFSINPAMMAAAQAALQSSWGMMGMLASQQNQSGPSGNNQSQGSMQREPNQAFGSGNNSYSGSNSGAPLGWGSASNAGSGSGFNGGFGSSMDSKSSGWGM

B1: plasminogen: human plasminogen purified from human donor plasma, in which human Lys-plasminogen and Glu-plasminogen are >98% (protein)
chain: KVYLSECKTGNGKNYRGTMSKTKNGITCQKWSSTSPHRPRFSPATHPSEGLEENYCRNPDNDPQGPWCYTTDPEKRYDYCDILECEEECMHCSGENYDGKISKTMSGLECQAWDSQSPHAHGYIPSKFPNKNLKKNYCRNPDRELRPWCFTTDPNKRWELCDIPRCTTPPPSSGPTYQCLKGTGENYRGNVAVTVSGHTCQHWSAQTPHTHNRTPENFPCKNLDENYCRNPDGKRAPWCHTTNSQVRWEYCKIPSCDSSPVSTEQLAPTAPPELTPVVQDCYHGDGQSYRGTSSTTTTGKKCQSWSSMTPHRHQKTPENYPNAGLTMNYCRNPDADKGPWCFTTDPSVRWEYCNLKKCSGTEASVVAPPPVVLLPDVETPSEEDCMFGNGKGYRGKRATTVTGTPCQDWAAQEPHRHSIFTPETNPRAGLEKNYCRNPDGDVGGPWCYTTNPRKLYDYCDVPQCAAPSFDCGKPQVEPKKCPGRVVGGCVAHPHSWPWQVSLRTRFGMHFCGGTLISPEWVLTAAHCLEKSPRPSSYKVILGAHQEVNLEPHVQEIEVSRLFLEPTRKDIALLKLSSPAVITDKVIPACLPSPNYVVADRTECFITGWGETQGTFGAGLLKEAQLPVIENKVCNRYEFLNGRVQSTELCAGHLAGGTDSCQGDSGGPLVCFEKDKYILQGVTSWGLGCARPNKPGVYVRVSRFVTWIEGVMRNN
Consider B1, for which, in data set [1], the “time within which plasminogen is almost completely metabolized (spinal cord tissue)” value is 12 to 24 h. For the same molecule, in data set [1] (vs vehicle group), the “plasminogen level in the spinal cord tissue” value is recorded as “significantly higher”. Moreover, in the data set with TDP-43 [2], the “level of TDP-43 monomer in brain tissue” value was “significantly lower” and the “level of low molecular weight TDP-43 in brain tissue” value was “significantly lower”. Also, the “amount of low molecular weight TDP-43 in spinal cord tissue” value in the data set on TDP-43 [3] is on record as “significantly lower”. In the data set with TDP-43 [4] (WB optical density), the “amount of TDP-43 monomer” value is recorded as “significantly lower”. Besides, in the data set with TDP-43 [4], the “amount of high molecular weight TDP-43 protein (HMW)” value is on record as “significantly lower” and the “amount of low molecular weight TDP-43 fragment (LMW)” value is listed as “significantly lower”. Besides, in data set [5], the “level of plasmin activity in the brain tissue” value was “significantly higher”.
